Experiments:
[1] = substrate: Cc1cc2nc3c(=O)[nH]c(=O)nc-3n(C[C@H](O)[C@H](O)[C@H](O)COP(=O)(O)O)c2cc1C; experiment: purified protein; type: biochemical, Entamoeba histolytica; conditions: apparent, ATP fixed 100 µM (table footnote prints mM), 5 mM MgCl2, 50 mM Tris-HCl pH 7.5, 35°C
[2] = substrate: Nc1ncnc2c1ncn2[C@@H]1O[C@H](COP(=O)(O)OP(=O)(O)OP(=O)(O)O)[C@@H](O)[C@H]1O; experiment: purified protein; type: biochemical, Entamoeba histolytica; conditions: apparent, FMN fixed 200 µM (table footnote prints mM), 5 mM MgCl2, 50 mM Tris-HCl pH 7.5, 35°C

B1: EhFADS (EHI_198800) (Entamoeba histolytica HM-1:IMSS) (protein)
chain: MKGKTKQTKQILHDLKERFGEGPYEVMIAGTFDLIHPGHIHFIQEAAQFGRVIVIIARDSVVKRIKQRETVLDEKMRQSIVEGIKGVSEVVLGCENGNWYEPILKRNPHLFLMGFNQPGDLFRFEKVIHEKGGRTIFRRSNSMEKSYSLQSSSQIRRRVIEIVNNKIQ
Question: Which results are given for B1?
Answer: Km [1]: 0.0707 ± 0.0071 mM; Vmax [1]: 0.06 µmol/min/mg; kcat [1]: 0.0202 ± 0.002 s⁻¹; Km [2]: 0.0439 ± 0.0079 mM; Vmax [2]: 0.0649 µmol/min/mg; kcat [2]: 0.0218 ± 0.000333 s⁻¹
